This note sets out measurements from patent publication US20260166185A1 (Y MABS THERAPEUTICS, published 2026).

In assay [1] the target is T1, bio-huCD38 (human (hu), UniProt P28907 43-300, biotinylated (bio-), site not stated). Nature of the assay: SPR, antigen immobilized, antibody as analyte 25-1.6 nM. How it is done: (§1) SPR analysis was performed on a Biocore 8K+, using a CFJB0944 CM5 sensor chip for immobilization and a SPR running buffer 1×HBS-EP+pH 7.4 (Cytiva, cat no. BR100669) according to the manufacturer's instructions.
(§2) In the second part of this example, antigen was immobilized on the chip and antibody dissolved in the SPR running buffer flowed over the chip.

The target in assay [2] is T1, bio-huCD38. Nature of the assay: SPR, antibody captured on chip, antigen as analyte 200-6.25 nM. How it is done: as §1
In the first part of this example the antibody was immobilized on the chip and the antigen dissolved in the SPR running buffer flowed over the chip.
A general note: SPR reads the build-up and loss of mass on a sensor chip optically.

Assay [3] concerns the target T2, CD38 on Daudi cells (UniProt P28907 1-300, limits assumed).
T2 construct: whole, on cells
Nature of the assay: titration binding FACS on Daudi cells. How it is done:
Subsequently the EC50 of antibodies samples was determined by titration binding FACS on Daudi cells (for CD38 binding evaluation), on THP-1 cells (for CD33 binding evaluation), on A-431 cells (for EGFR binding evaluation), on MKN-45 cells (for CEACAMS binding evaluation) and on HEK293T (for CD276 binding evaluation). Jurkat E6-1 or HEK293T cell lines were used as negative control, as applicable.

Assay [4] deals with T1, bio-huCD38. The assay is described as follows: SPR, antigen immobilized, antibody as analyte 50-3.1 nM. How it is done:
as §1, §2

Assay [5] has as its target Bio-huHER2/Erb2 (human (hu), UniProt P04626 23-652, biotinylated (bio-), site not stated). The assay is described as follows: SPR (Biacore 8K+), immobilized antigen, 25.0-1.6 nM.
Assay [6] addresses T1, bio-huCD38. Described as above.
Assay [7] concerns the target T1, bio-huCD38. Nature of the assay: SPR, antigen immobilized, antibody as analyte 100-6.25 nM. How it is done:
as §1, §2

B1: CD38-DOTAM(Fab)-p53 (bispecific antibody)
light: DVQLQESGGGLVQAGGSLRLSCTGSGRTFRNYPMAWFRQAPGKEREFVAGITWVGASTLYADFAKGRFTISRDNAKNTVYLQMNSLKPEDTAVYSCAAGRGIVAGRIPAEYADWGQGTQVTVSSGGGGSGGGGSGGGGSGGGGGSDIQMTQSPSSLSASVGDRVTITCQSSHSVYSDNDLAWYQQKPGKAPKLLIYQASKLASGVPSRFSGSGSGTDFTLTISSLQPEDFATYYCLGGYDDESDTYGFGGGTKVEIKRTVAAPSVFIFPPSDEQLKSGTASVVCLLNNFYPREAKVQWKVDNALQSGNSQESVTEQDSKDSTYSLSSTLTLSKADYEKHKVYACEVTHQGLSSPVTKSFNRGEC
heavy: VTLKESGPVLVKPTETLTLTCTVSGFSLSTYSMSWIRQPPGKALEWLGFIGSRGDTYYASWAKGRLTISKDTSKSQVVLTMTNMDPVDTATYYCARERDPYGGGAYPPHLWGRGTLVTVSSASTKGPSVFPLAPSSKSTSGGTAALGCLVKDYFPEPVTVSWNSGALTSGVHTFPAVLQSSGLYSLSSVVTVPSSSLGTQTYICNVNHKPSNTKVDKKVEPKSCGGGGSGGGGSKPLDGEYFTLQIRGRERFEMFRELNEALELKDAQAGKEPGGS
notes: Tetramerizes through p53 depending on concentration; also called YM00006; molecule 5
The Kd is a measure of binding affinity in units of concentration. High values mean weaker binding, low ones tighter binding. One may read the koff as the rate constant with which the complex falls apart. The low end stands for slow dissociation, the high end for fast dissociation. The kon is a measure of how fast the partners come together. Higher therefore signals faster complex formation. Broadly, the EC50 is the concentration that produces a half-maximal response. Low readings indicate greater potency, high ones weaker potency. In assay [1], B1 gave an equilibrium dissociation constant (Kd) of 0.936 nM, a koff of 1.63e-05 s⁻¹ and an on-rate (kon) of 17400 M⁻¹ s⁻¹. In assay [2], the dissociation constant (Kd) was found to be 2.09 nM, the koff was determined as 7.86e-05 s⁻¹ and the kon is 37600 M⁻¹ s⁻¹. This molecule also yielded an EC50 in assay [3] of 0.59 nM.

B2: CD38-DOTAM(fab)-dp53 (bispecific antibody)
light: DVQLQESGGGLVQAGGSLRLSCTGSGRTFRNYPMAWFRQAPGKEREFVAGITWVGASTLYADFAKGRFTISRDNAKNTVYLQMNSLKPEDTAVYSCAAGRGIVAGRIPAEYADWGQGTQVTVSSGGGGSGGGGSGGGGSGGGGGSDIQMTQSPSSLSASVGDRVTITCQSSHSVYSDNDLAWYQQKPGKAPKLLIYQASKLASGVPSRFSGSGSGTDFTLTISSLQPEDFATYYCLGGYDDESDTYGFGGGTKVEIKRTVAAPSVFIFPPSDEQLKSGTASVVCLLNNFYPREAKVQWKVDNALQSGNSQESVTEQDSKDSTYSLSSTLTLSKADYEKHKVYACEVTHQGLSSPVTKSFNRGEC
heavy: VTLKESGPVLVKPTETLTLTCTVSGFSLSTYSMSWIRQPPGKALEWLGFIGSRGDTYYASWAKGRLTISKDTSKSQVVLTMTNMDPVDTATYYCARERDPYGGGAYPPHLWGRGTLVTVSSASTKGPSVFPLAPSSKSTSGGTAALGCLVKDYFPEPVTVSWNSGALTSGVHTFPAVLQSSGLYSLSSVVTVPSSSLGTQTYICNVNHKPSNTKVDKKVEPKSCG
notes: No tetramerization domain; also called YM00007; molecule 6
In assay [1], B2 yielded a Kd of 0.132 nM, a koff of 0.000189 s⁻¹ and a kon of 1.43e+06 M⁻¹ s⁻¹. In assay [2], this molecule registered a Kd of 12.7 nM, a dissociation rate constant (koff) of 0.000214 s⁻¹ and a kon of 16800 M⁻¹ s⁻¹. The molecule further yielded an EC50 in assay [3] of 0.51 nM.

B3: CD38-DOTA(fab)-p53_C-Term-HC (bispecific antibody)
light: QAVVIQESALTTPPGETVTLTCGSSTGAVTASNYANWVQEKPDHLFTGLIGGHNNRPPGVPARFSGSLIGDKAALTIAGTQTEDEAIYFCALWYSDHWVIGGGTRLTVLGQPKANPTVTLFPPSSEELQANKATLVCLISDFYPGAVTVAWKADGSPVKAGVETTKPSKQSNNKYAASSYLSLTPEQWKSHRSYSCQVTHEGSTVEKTVAPTECS
heavy: HVKLQESGPGLVQPSQSLSLTCTVSGFSLTDYGVHWVRQSPGKGLEWLGVIWSGGGTAYNTALISRLNIYRDNSKNQVFLEMNSLQAEDTAMYYCARRGSYPYNYFDAWGRGTTVTVSSASTKGPSVFPLAPSSKSTSGGTAALGCLVKDYFPEPVTVSWNSGALTSGVHTFPAVLQSSGLYSLSSVVTVPSSSLGTQTYICNVNHKPSNTKVDKKVEPKSCGGGGSGGGGSGGGGSGGGGGSDVQLQESGGGLVQAGGSLRLSCTGSGRTFRNYPMAWFRQAPGKEREFVAGITWVGASTLYADFAKGRFTISRDNAKNTVYLQMNSLKPEDTAVYSCAAGRGIVAGRIPAEYADWGQGTQVTVSSGGGGSGGGGSKPLDGEYFTLQIRGRERFEMFRELNEALELKDAQAGKEPGGS
notes: VHH C-terminal of the Fab heavy chain, before p53; also called YM00014; molecule 13
In assay [2], B3 showed a Kd of 1.33 nM, an off-rate constant (koff) of 7.59e-05 s⁻¹ and a kon of 57000 M⁻¹ s⁻¹. For the same molecule, the 50% effective concentration (EC50) in assay [3] worked out at 2.36 nM. In assay [4], this molecule returned a dissociation constant (Kd) of 0.163 nM, a koff of 1.52e-05 s⁻¹ and a kon of 93300 M⁻¹ s⁻¹.

B4: HER2-DOTA(Fab)-p53 (bispecific antibody)
light: QVQLQESGGGSVQAGGSLKLTCAASGYIFNSCGMGWYRQSPGRERELVSRISGDGDTWHKESVKGRFTISQDNVKKTLYLQMNSLKPEDTAVYFCAVCYNLETYWGQGTQVTVSSGGGSGGGSGGGSGGGGSQAVVTQESALTTSPGETVTLTCRSSTGAVTTSNYANWVQEKPDHLFTGLIGGNNNRPPGVPARFSGSLIGDKAALTIAGTQTEDEAIYFCALWYSNHWVFGGGTRLTVLGQPKSSPSVTLFPPSSEELETNKATLVCTITDFYPGVVTVDWKVDGTPVTQGMETTQPSKQSNNKYMASSYLTLTARAWERHSSYSCQVTHEGHTVEKSLSPAECS
heavy: HVKLQESGPGLVQPSQSLSLTCTVSGFSLTDYGVHWVRQSPGKGLEWLGVIWSGGGTAYNTALISRLNIYRDNSKNQVFLEMNSLQAEDTAMYYCARRGSYPYNYFDAWGRGTTVTVSSASTKGPSVFPLAPSSKSTSGGTAALGCLVKDYFPEPVTVSWNSGALTSGVHTFPAVLQSSGLYSLSSVVTVPSSSLGTQTYICNVNHKPSNTKVDKKVEPKSCGGGGSGGGGSKPLDGEYFTLQIRGRERFEMFRELNEALELKDAQAGKEPGGSGGAPHHHHHH
notes: Tetramerizes through p53 depending on concentration; also called YM00018; molecule 2
In assay [5], B4 registered a dissociation constant Kd of 0.0588 nM, a koff of 2.25e-05 s⁻¹ and an on-rate (kon) of 383000 M⁻¹ s⁻¹.

B5: CD38-DOTA(Fab)-p53 (bispecific antibody)
light: DVQLQESGGGLVQAGGSLRLSCTGSGRTFRNYPMAWFRQAPGKEREFVAGITWVGASTLYADFAKGRFTISRDNAKNTVYLQMNSLKPEDTAVYSCAAGRGIVAGRIPAEYADWGQGTQVTVSSGGGGSGGGGSGGGGSGGGGGSQAVVIQESALTTPPGETVTLTCGSSTGAVTASNYANWVQEKPDHLFTGLIGGHNNRPPGVPARFSGSLIGDKAALTIAGTQTEDEAIYFCALWYSDHWVIGGGTRLTVLGQPKANPTVTLFPPSSEELQANKATLVCLISDFYPGAVTVAWKADGSPVKAGVETTKPSKQSNNKYAASSYLSLTPEQWKSHRSYSCQVTHEGSTVEKTVAPTECS
heavy: HVKLQESGPGLVQPSQSLSLTCTVSGFSLTDYGVHWVRQSPGKGLEWLGVIWSGGGTAYNTALISRLNIYRDNSKNQVFLEMNSLQAEDTAMYYCARRGSYPYNYFDAWGRGTTVTVSSASTKGPSVFPLAPSSKSTSGGTAALGCLVKDYFPEPVTVSWNSGALTSGVHTFPAVLQSSGLYSLSSVVTVPSSSLGTQTYICNVNHKPSNTKVDKKVEPKSCGGGGSGGGGSKPLDGEYFTLQIRGRERFEMFRELNEALELKDAQAGKEPGGSGGAPHHHHHH
notes: VHH-Fab fusion of two polypeptide chains; Tetramerizes through p53 depending on concentration; also called YM00016; molecule 1
For the molecule B5, the EC50 in assay [3] came to 0.65 nM. Further, in assay [6], the Kd came out at 0.0257 nM, the koff was found to be 1.41e-05 s⁻¹ and the on-rate (kon) turned out to be 550000 M⁻¹ s⁻¹.

B6: CD38-DOTA(fab)-p53_C-Term-LC (bispecific antibody)
light: QAVVIQESALTTPPGETVTLTCGSSTGAVTASNYANWVQEKPDHLFTGLIGGHNNRPPGVPARFSGSLIGDKAALTIAGTQTEDEAIYFCALWYSDHWVIGGGTRLTVLGQPKANPTVTLFPPSSEELQANKATLVCLISDFYPGAVTVAWKADGSPVKAGVETTKPSKQSNNKYAASSYLSLTPEQWKSHRSYSCQVTHEGSTVEKTVAPTECSGGGGSGGGGSGGGGSGGGGGSDVQLQESGGGLVQAGGSLRLSCTGSGRTFRNYPMAWFRQAPGKEREFVAGITWVGASTLYADFAKGRFTISRDNAKNTVYLQMNSLKPEDTAVYSCAAGRGIVAGRIPAEYADWGQGTQVTVSS
heavy: HVKLQESGPGLVQPSQSLSLTCTVSGFSLTDYGVHWVRQSPGKGLEWLGVIWSGGGTAYNTALISRLNIYRDNSKNQVFLEMNSLQAEDTAMYYCARRGSYPYNYFDAWGRGTTVTVSSASTKGPSVFPLAPSSKSTSGGTAALGCLVKDYFPEPVTVSWNSGALTSGVHTFPAVLQSSGLYSLSSVVTVPSSSLGTQTYICNVNHKPSNTKVDKKVEPKSCGGGGSGGGGSKPLDGEYFTLQIRGRERFEMFRELNEALELKDAQAGKEPGGS
notes: VHH at the C-terminus of the light chain; also called YM00013; molecule 12
In assay [7], B6 came in with a Kd of 0.313 nM, an off-rate constant (koff) of 1.3e-05 s⁻¹ and an on-rate (kon) of 41500 M⁻¹ s⁻¹. Further, in assay [2], binding was characterised by a dissociation constant (Kd) of 1.28 nM, the off-rate constant (koff) was determined as 0.000103 s⁻¹ and the on-rate (kon) was determined as 80700 M⁻¹ s⁻¹. This molecule also showed a concentration giving a half-maximal response (EC50) in assay [3] of 3.75 nM.
